Data published in the RNAGym collection of RNA variant scans (doi:10.7554/elife.80360).

B1: Twister Ribozyme (parent)
chain: AACACUGCCAAUGCCGGUCCCAAGCCCGGAUAAAAGUGGAGGGGGCGG

Variants of: B1
Test: self-cleavage, relative activity (ratio to wild type); higher = more cleavage; co-transcriptional
AACACUGCCAAUGCCGGUCCCAAGCCCGGAUAAAAGUGGAUGGGGCAG showed a self-cleavage of 0.349. Work on AACACUGCCAAUGCCGGUCCCAAGCCCGGAUAAAAGUGGAUGGCGCGG yielded a self-cleavage of 0.218. For AACACUGCCAAUGCCGGUCCCAAGCCCGGAUAAAAGUGGAAGUGGCGG, the self-cleavage was 0.135. In the case of AACACUGCCAAUGCCGGUCCCAAGCCCGGAUAAAAGUGGAAGCGGCGG, the self-cleavage is reported as 0.14. Variant AACACUGCCAAUGCCGGUCCCAAGCCCGGAUAAAAGUGGAAGGGGUGG has a self-cleavage of 0.612. In the case of AACACUGCCAAUGCCGGUCCCAAGCCCGGAUAAAAGUGGAAGGGGGGG, the self-cleavage is reported as 0.429. Work on AACACUGCCAAUGCCGGUCCCAAGCCCGGAUAAAAGUGGAAGGGGAGG yielded a self-cleavage of 0.356. Work on AACACUGCCAAUGCCGGUCCCAAGCCCGGAUAAAAGUGGACGGGUCGG yielded a self-cleavage of 0.429. For AACACUGCCAAUGCCGGUCCCAAGCCCGGAUAAAAGUGCAGGGGGCGU, the self-cleavage was 0.198. AACACUGCCAAUGCCGGUCCCAAGCCCGGAUAAAAGUGCAGGGGGCGC showed a self-cleavage of 0.161. Work on AACACUGCCAAUGCCGGUCCCAAGCCCGGAUAAAAGUGGAAGGAGCGG yielded a self-cleavage of 0.483. In the case of AACACUGCCAAUGCCGGUCCCAAGCCCGGAUAAAAGUGGAAGGCGCGG, the self-cleavage is reported as 0.205. With AACACUGCCAAUGCCGGUCCCAAGCCCGGAUAAAAGUGGAAGGUGCGG the self-cleavage was 0.228. For AACACUGCCAAUGCCGGUCCCAAGCCCGGAUAAAAGUGGAAGGGGCGU, the self-cleavage was 0.511. Work on AACACUGCCAAUGCCGGUCCCAAGCCCGGAUAAAAGUGGACAGGGCGG yielded a self-cleavage of 0.125. For AACACUGCCAAUGCCGGUCCCAAGCCCGGAUAAAAGUGGACUGGGCGG, the self-cleavage was 0.167. With AACACUGCCAAUGCCGGUCCCAAGCCCGGAUAAAAGUGGACCGGGCGG the self-cleavage was 0.129. In the case of AACACUGCCAAUGCCGGUCCCAAGCCCGGAUAAAAGUGGUGGGUGCGG, the self-cleavage is reported as 0.183. Variant AACACUGCCAAUGCCGGUCCCAAGCCCGGAUAAAAGUGGUGGUGGCGG has a self-cleavage of 0.0936. For AACACUGCCAAUGCCGGUCCCAAGCCCGGAUAAAAGUGGUGGGGGCGU, the self-cleavage was 0.21. AACACUGCCAAUGCCGGUCCCAAGCCCGGAUAAAAGUGGUGGGGGCGA showed a self-cleavage of 0.159. With AACACUGCCAAUGCCGGUCCCAAGCCCGGAUAAAAGUGGUGGGGGCGC the self-cleavage was 0.209. For AACACUGCCAAUGCCGGUCCCAAGCCCGGAUAAAAGUGGAUAGGGCGG, the self-cleavage was 0.136. For AACACUGCCAAUGCCGGUCCCAAGCCCGGAUAAAAGUGGGGAGGGCGG, the self-cleavage was 0.113. AACACUGCCAAUGCCGGUCCCAAGCCCGGAUAAAAGUGGGGCGGGCGG showed a self-cleavage of 0.215. In the case of AACACUGCCAAUGCCGGUCCCAAGCCCGGAUAAAAGUGCAGGUGGCGG, the self-cleavage is reported as 0.112. Work on AACACUGCCAAUGCCGGUCCCAAGCCCGGAUAAAAGUGCAGGCGGCGG yielded a self-cleavage of 0.0898. AACACUGCCAAUGCCGGUCCCAAGCCCGGAUAAAAGUGCAGGGUGCGG gave a self-cleavage of 0.169. In the case of AACACUGCCAAUGCCGGUCCCAAGCCCGGAUAAAAGUGGAGAGGGCCG, the self-cleavage is reported as 0.241. AACACUGCCAAUGCCGGUCCCAAGCCCGGAUAAAAGUGGUGGGGCCGG showed a self-cleavage of 0.129. With AACACUGCCAAUGCCGGUCCCAAGCCCGGAUAAAAGUGGUGGGGACGG the self-cleavage was 0.192. Variant AACACUGCCAAUGCCGGUCCCAAGCCCGGAUAAAAGUGGUGGGGUCGG has a self-cleavage of 0.177. AACACUGCCAAUGCCGGUCCCAAGCCCGGAUAAAAGUGGGGGGAGCGG gave a self-cleavage of 0.157. Variant AACACUGCCAAUGCCGGUCCCAAGCCCGGAUAAAAGUGUAGGGGGUGG has a self-cleavage of 0.23. Variant AACACUGCCAAUGCCGGUCCCAAGCCCGGAUAAAAGUGUAGGGGGGGG has a self-cleavage of 0.172. Work on AACACUGCCAAUGCCGGUCCCAAGCCCGGAUAAAAGUGUAGGGGGAGG yielded a self-cleavage of 0.19. For AACACUGCCAAUGCCGGUCCCAAGCCCGGAUAAAAGUGGUGCGGGCGG, the self-cleavage was 0.157. Work on AACACUGCCAAUGCCGGUCCCAAGCCCGGAUAAAAGUGGUGAGGGCGG yielded a self-cleavage of 0.136. Variant AACACUGCCAAUGCCGGUCCCAAGCCCGGAUAAAAGUGUAGGGGGCGG has a self-cleavage of 0.232. Work on AACACUGCCAAUGCCGGUCCCAAGCCCGGAUAAAAGUGGGGGGGGGGG yielded a self-cleavage of 0.184. For AACACUGCCAAUGCCGGUCCCAAGCCCGGAUAAAAGUGGUGGGGGCAG, the self-cleavage was 0.164. For AACACUGCCAAUGCCGGUCCCAAGCCCGGAUAAAAGUGGGGGUGGCGG, the self-cleavage was 0.136. For AACACUGCCAAUGCCGGUCCCAAGCCCGGAUAAAAGUGGGGGCGGCGG, the self-cleavage was 0.135. Work on AACACUGCCAAUGCCGGUCCCAAGCCCGGAUAAAAGUGGAUGGGGCGC yielded a self-cleavage of 0.738. For AACACUGCCAAUGCCGGUCCCAAGCCCGGAUAAAAGUGGAUGGGGCGU, the self-cleavage was 0.584. Variant AACACUGCCAAUGCCGGUCCCAAGCCCGGAUAAAAGUGGAGAGGGCGG has a self-cleavage of 0.516. For AACACUGCCAAUGCCGGUCCCAAGCCCGGAUAAAAGUGCAGGGGGCCG, the self-cleavage was 0.167. AACACUGCCAAUGCCGGUCCCAAGCCCGGAUAAAAGUGCAGGGGGCUG gave a self-cleavage of 0.163. Variant AACACUGCCAAUGCCGGUCCCAAGCCCGGAUAAAAGUGGCGGGGACGG has a self-cleavage of 0.23. With AACACUGCCAAUGCCGGUCCCAAGCCCGGAUAAAAGUGGCGGGGCCGG the self-cleavage was 0.154. AACACUGCCAAUGCCGGUCCCAAGCCCGGAUAAAAGUGGCGGGGUCGG showed a self-cleavage of 0.171. AACACUGCCAAUGCCGGUCCCAAGCCCGGAUAAAAGUGGAUGGGGCGG showed a self-cleavage of 0.752. Work on AACACUGCCAAUGCCGGUCCCAAGCCCGGAUAAAAGUGGAAGGGGCGG yielded a self-cleavage of 0.665. Work on AACACUGCCAAUGCCGGUCCCAAGCCCGGAUAAAAGUGGACGGGGCGG yielded a self-cleavage of 0.326.
